Sequences and labels used below:
B1: recombinant Tie1 extracellular domain, Fc fusion protein [not stated] / GST fusion protein of the 20th CCP domain of Polydom [mouse] (parent complex)
chain 1: AVDLTLLANLRLTDPQRFFLTCVSGEAGAGRGSDAWGPPLLLEKDDRIVRTPPGPPLRLARNGSHQVTLRGFSKPSDLVGVFSCVGGAGARRTRVIYVHNSPGAHLLPDKVTHTVNKGDTAVLSARVHKEKQTDVIWKSNGSYFYTLDWHEAQDGRFLLQLPNVQPPSSGIYSATYLEASPLGSAFFRLIVRGCGAGRWGPGCTKECPGCLHGGVCHDHDGECVCPPGFTGTRCEQACREGRFGQSCQEQCPGISGCRGLTFCLPDPYGCSCGSGWRGSQCQEACAPGHFGADCRLQCQCQNGGTCDRFSGCVCPSGWHGVHCEKSDRIPQILNMASELEFNLETMPRINCAAAGNPFPVRGSIELRKPDGTVLLSTKAIVEPEKTTAEFEVPRLVLADSGFWECRVSTSGGQDSRRFKVNVKVPPVPLAAPRLLTKQSRQLVVSPLVSFSGDGPISTVRLHYRPQDSTMDWSTIVVDPSENVTLMNLRPKTGYSVRVQLSRPGEGGEGAWGPPTLMTTDCPEPLLQPWLEGWHVEGTDRLRVSWSLPLVPGPLVGDGFLLRLWDGTRGQERRENVSSPQARTALLTGLTPGTHYQLDVQLYHCTLLGPASPPAHVLLPPSGPPAPRHLHAQALSDSEIQLTWKHPEALPGPISKYVVEVQVAGGAGDPLWIDVDRPEETSTIIRGLNASTRYLFRMRASIQGLGDWSNTVEESTLGNGLQAEGPVQESRAAEEGLDQ
chain 2: IHCSDPQPIENGFVEGADYRYGAMIIYSCFPGFQVLGHAMQTCEESGWSSSSPTCVP

Drawing on article PMC10281526, “Polydom/SVEP1 binds to Tie1 and promotes migration of lymphatic endothelial cells” (The Journal of Cell Biology, 2023), this text covers response for 13 variants.

The variants in the assay derive from B1. Briefly: solid-phase binding assay; parent: 1.25; read off a plot.
Turning to chain 2 D18A, the response was roughly 1.1 A490.
In the case of chain 2 M24A, the response was roughly 1.2 A490.
In the case of chain 2 R20A, the response was roughly 1.3 A490.
With chain 2 Y21A, the response was roughly 1.4 A490.
Consider chain 2 G22A, for which the response is roughly 1.1 A490.
Next, chain 2 E15A: roughly 0.04 A490; chain 2 G16A: roughly 0.07 A490.
Regarding chain 2 I25A, the response was roughly 0.6 A490.
For the variant chain 2 I26A, the response is roughly 1.3 A490.
Next, chain 2 Y19A: roughly 1.4 A490.
With chain 2 V14A the figure was roughly 0.53 A490; with chain 2 A17G, roughly 0.93 A490; with chain 2 A23G, roughly 1.4 A490.
